One block for each binder: values may come before it.
How the values were obtained:
Assay in all cases: holdup assay
Parameters in all cases: key: below the threshold = too weak to quantify, mostly under pKd 3.1 to 4
[1] = target: T1, CARD11, Q9BXL7
T1 sequence (Q9BXL7 662-765, limits assumed, looked up): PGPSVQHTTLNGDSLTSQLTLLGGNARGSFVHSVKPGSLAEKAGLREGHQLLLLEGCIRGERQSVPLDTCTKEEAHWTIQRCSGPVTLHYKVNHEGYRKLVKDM

[2] = target: GRIP2_5, Q9C0E4
[3] = target: T2, RADIL, Q96JH8
T2 sequence (Q96JH8 971-1071, limits assumed, looked up): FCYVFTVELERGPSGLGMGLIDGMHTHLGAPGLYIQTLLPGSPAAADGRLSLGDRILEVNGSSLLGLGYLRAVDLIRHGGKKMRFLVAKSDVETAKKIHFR

[4] = target: FRMPD2_3, Q68DX3
[5] = target: T3, RHPN1, Q8TCX5
T3 sequence (Q8TCX5 508-602, limits assumed, looked up): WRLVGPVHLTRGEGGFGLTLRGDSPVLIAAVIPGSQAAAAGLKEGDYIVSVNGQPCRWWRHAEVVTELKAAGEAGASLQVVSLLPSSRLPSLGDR

[6] = target: GRIP2_6, Q9C0E4
[7] = target: Inadl_6, Q8NI35
[8] = target: SNX27, Q96L92
[9] = target: T4, DLG3_3, Q92796
T4 sequence (Q92796 374-475, limits assumed, looked up): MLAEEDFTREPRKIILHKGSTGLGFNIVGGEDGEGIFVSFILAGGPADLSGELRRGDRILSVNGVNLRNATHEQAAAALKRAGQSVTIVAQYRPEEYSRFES

[10] = target: T5, DLG3_2, Q92796
T5 sequence (Q92796 221-321, limits assumed, looked up): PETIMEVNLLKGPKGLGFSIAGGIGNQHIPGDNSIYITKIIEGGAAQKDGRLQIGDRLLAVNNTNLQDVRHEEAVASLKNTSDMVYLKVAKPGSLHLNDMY

[11] = target: T6, SYNJ2BP, P57105
T6 sequence (P57105 8-110, limits assumed, looked up): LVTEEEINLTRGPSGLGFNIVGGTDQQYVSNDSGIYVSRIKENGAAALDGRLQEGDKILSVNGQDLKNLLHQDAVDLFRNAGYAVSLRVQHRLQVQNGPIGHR

[12] = target: T7, ARHGEF11, O15085
T7 sequence (O15085 42-136, limits assumed, looked up): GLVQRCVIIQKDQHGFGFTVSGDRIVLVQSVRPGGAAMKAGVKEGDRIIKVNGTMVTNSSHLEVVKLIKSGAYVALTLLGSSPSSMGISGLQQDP

[13] = target: T8, SIPA1L2, Q9P2F8
T8 sequence (Q9P2F8 945-1036, limits assumed, looked up): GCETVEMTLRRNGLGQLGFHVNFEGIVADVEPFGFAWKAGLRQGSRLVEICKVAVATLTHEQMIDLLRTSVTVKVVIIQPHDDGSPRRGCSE

[14] = target: ARHGEF12, Q9NZN5-2
[15] = target: MAGI2_2, Q86UL8
[16] = target: NHERF4_2, Q86UT5
[17] = target: T9, DFNB31_1, Q9P202
T9 sequence (Q9P202 135-233, limits assumed, looked up): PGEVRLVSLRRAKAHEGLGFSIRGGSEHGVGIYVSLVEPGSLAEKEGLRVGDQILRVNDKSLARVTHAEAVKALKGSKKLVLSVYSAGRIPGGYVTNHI

[18] = target: T10, MPDZ_5, O75970
T10 sequence (O75970 695-796, limits assumed, looked up): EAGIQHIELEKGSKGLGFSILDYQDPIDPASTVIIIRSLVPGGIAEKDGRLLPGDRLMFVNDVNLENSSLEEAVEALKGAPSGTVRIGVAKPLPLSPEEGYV

[19] = target: T11, LRRC7, Q96NW7
T11 sequence (Q96NW7 1440-1537, limits assumed, looked up): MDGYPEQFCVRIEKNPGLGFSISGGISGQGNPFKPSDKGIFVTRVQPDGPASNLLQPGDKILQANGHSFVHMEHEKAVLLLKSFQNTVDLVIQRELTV

[20] = target: TJP1_3, Q07157
[21] = target: Inadl_1, Q8NI35
[22] = target: T12, MPP7, Q5T2T1
T12 sequence (Q5T2T1 134-230, limits assumed, looked up): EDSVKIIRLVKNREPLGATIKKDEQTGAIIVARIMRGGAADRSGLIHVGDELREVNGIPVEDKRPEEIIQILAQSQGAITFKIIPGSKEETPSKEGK

[23] = target: T13, GRIP1_3, Q9Y3R0
T13 sequence (Q9Y3R0 247-346, limits assumed, looked up): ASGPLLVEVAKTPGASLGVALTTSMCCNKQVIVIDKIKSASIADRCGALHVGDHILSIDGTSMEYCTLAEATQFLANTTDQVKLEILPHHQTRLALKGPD

[24] = target: HTRA1, Q92743
[25] = plain residues with an end cap or a label only (N-terminal biotin on a linker: ahx)
[26] = plain residues with an end cap or a label only (N-terminal biotin on a linker: ado-ado)

Chain of FRMPD2_3, Q68DX3 (Q68DX3 1073-1166): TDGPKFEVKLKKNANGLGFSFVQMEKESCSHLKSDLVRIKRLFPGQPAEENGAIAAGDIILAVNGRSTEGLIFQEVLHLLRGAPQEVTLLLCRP
Chain of MAGI2_2, Q86UL8 (Q86UL8 410-522): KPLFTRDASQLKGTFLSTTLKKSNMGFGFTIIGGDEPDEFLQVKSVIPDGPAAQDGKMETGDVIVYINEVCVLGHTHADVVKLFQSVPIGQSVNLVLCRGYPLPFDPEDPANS
Chain of TJP1_3, Q07157 (Q07157 416-512): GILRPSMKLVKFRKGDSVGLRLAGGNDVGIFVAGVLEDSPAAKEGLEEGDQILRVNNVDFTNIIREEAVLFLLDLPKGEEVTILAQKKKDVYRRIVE
Chain of Inadl_1, Q8NI35 (Q8NI35 113-229): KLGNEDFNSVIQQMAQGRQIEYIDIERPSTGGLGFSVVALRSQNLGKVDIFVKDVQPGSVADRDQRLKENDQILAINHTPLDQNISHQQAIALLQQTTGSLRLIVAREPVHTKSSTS
Chain of GRIP2_5, Q9C0E4 (Q9C0E4 544-642): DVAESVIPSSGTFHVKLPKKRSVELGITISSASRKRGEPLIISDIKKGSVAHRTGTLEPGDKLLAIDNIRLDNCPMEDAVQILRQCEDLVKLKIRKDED
Chain of GRIP2_6, Q9C0E4 (Q9C0E4 648-740): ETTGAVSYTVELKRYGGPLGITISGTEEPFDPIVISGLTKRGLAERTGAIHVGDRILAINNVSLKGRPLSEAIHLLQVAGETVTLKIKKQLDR
Chain of ARHGEF12, Q9NZN5-2 (Q9NZN5 other isoform, or with tags, fused parts or gaps): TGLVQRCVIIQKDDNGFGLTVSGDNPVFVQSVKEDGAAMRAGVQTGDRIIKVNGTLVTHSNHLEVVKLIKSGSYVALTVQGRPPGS
Chain of NHERF4_2, Q86UT5 (Q86UT5 220-308): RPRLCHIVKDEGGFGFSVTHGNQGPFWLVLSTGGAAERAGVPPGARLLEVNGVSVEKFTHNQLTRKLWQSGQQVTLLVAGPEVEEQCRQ
Chain of HTRA1, Q92743 (Q92743 360-477): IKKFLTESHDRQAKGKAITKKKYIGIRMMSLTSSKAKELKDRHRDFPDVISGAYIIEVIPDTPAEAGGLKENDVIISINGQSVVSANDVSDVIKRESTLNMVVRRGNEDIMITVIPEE
Chain of Inadl_6, Q8NI35 (Q8NI35 1058-1167): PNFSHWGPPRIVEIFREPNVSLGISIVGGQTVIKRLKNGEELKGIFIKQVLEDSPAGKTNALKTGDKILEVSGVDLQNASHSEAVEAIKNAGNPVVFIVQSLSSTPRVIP

Binder: APSRKLNTEI [TIAM1, Q13009]
- pKd [1, 25]: below the threshold
- pKd [2, 25]: below the threshold
- pKd [3, 25]: below the threshold
- pKd [4, 25]: below the threshold
- pKd [5, 25]: 3.88
- pKd [6, 25]: below the threshold
- pKd [7, 25]: below the threshold
- pKd [8, 25]: below the threshold
- pKd [9, 25]: below the threshold
- pKd [10, 25]: 3.72
- pKd [11, 25]: below the threshold
- pKd [12, 25]: below the threshold
- pKd [13, 25]: below the threshold
- pKd [14, 25]: 3.76
- pKd [15, 25]: below the threshold
- pKd [16, 25]: below the threshold
- pKd [17, 25]: 3.55
- pKd [18, 25]: below the threshold
- pKd [19, 25]: below the threshold
- pKd [20, 25]: below the threshold
- pKd [21, 25]: below the threshold
- pKd [22, 25]: below the threshold
- pKd [23, 25]: below the threshold
- pKd [24, 25]: below the threshold

Binder: GTGYDRKDYV [CLDN3, O15551]
- pKd [1, 26]: below the threshold
- pKd [2, 26]: below the threshold
- pKd [3, 26]: 4.12
- pKd [4, 26]: below the threshold
- pKd [5, 26]: below the threshold
- pKd [6, 26]: below the threshold
- pKd [7, 26]: below the threshold
- pKd [8, 26]: 3.68
- pKd [9, 26]: 3.64
- pKd [10, 26]: below the threshold
- pKd [11, 26]: below the threshold
- pKd [12, 26]: 3.9
- pKd [13, 26]: below the threshold
- pKd [14, 26]: below the threshold
- pKd [15, 26]: below the threshold
- pKd [16, 26]: below the threshold
- pKd [17, 26]: below the threshold
- pKd [18, 26]: below the threshold
- pKd [19, 26]: below the threshold
- pKd [20, 26]: 3.54
- pKd [21, 26]: below the threshold
- pKd [22, 26]: below the threshold
- pKd [23, 26]: below the threshold
- pKd [24, 26]: 4.14

Binder: VLYPREGTEV [FOXI1, Q12951]
- pKd [1, 26]: below the threshold
- pKd [2, 26]: below the threshold
- pKd [3, 26]: 3.74
- pKd [4, 26]: below the threshold
- pKd [5, 26]: 3.95
- pKd [6, 26]: below the threshold
- pKd [7, 26]: below the threshold
- pKd [8, 26]: 4.31
- pKd [9, 26]: 3.8
- pKd [10, 26]: 4.59
- pKd [11, 26]: 5.23
- pKd [12, 26]: 4.54
- pKd [13, 26]: below the threshold
- pKd [14, 26]: 4.08
- pKd [15, 26]: 3.74
- pKd [16, 26]: below the threshold
- pKd [17, 26]: 3.8
- pKd [18, 26]: 3.66
- pKd [19, 26]: 3.49
- pKd [20, 26]: below the threshold
- pKd [21, 26]: below the threshold
- pKd [22, 26]: below the threshold
- pKd [23, 26]: below the threshold
- pKd [24, 26]: 4.64

Binder: RDPPAEWTRV [PTPN18, Q99952]
- pKd [1, 26]: below the threshold
- pKd [2, 26]: below the threshold
- pKd [3, 26]: 4
- pKd [4, 26]: below the threshold
- pKd [5, 26]: 4.35
- pKd [6, 26]: below the threshold
- pKd [7, 26]: below the threshold
- pKd [8, 26]: 4.55
- pKd [9, 26]: below the threshold
- pKd [10, 26]: 4.2
- pKd [11, 26]: below the threshold
- pKd [12, 26]: 4.38
- pKd [13, 26]: below the threshold
- pKd [14, 26]: 3.88
- pKd [15, 26]: 4.04
- pKd [16, 26]: below the threshold
- pKd [17, 26]: 4.17
- pKd [18, 26]: below the threshold
- pKd [19, 26]: below the threshold
- pKd [20, 26]: below the threshold
- pKd [21, 26]: below the threshold
- pKd [22, 26]: below the threshold
- pKd [23, 26]: below the threshold
- pKd [24, 26]: 4.4

The remaining lines, values ahead:

- pKd [1, 25]: below the threshold
- pKd [2, 25]: below the threshold
- pKd [3, 25]: below the threshold
- pKd [4, 25]: below the threshold
- pKd [5, 25]: 4.44
- pKd [6, 25]: below the threshold
- pKd [7, 25]: below the threshold
- pKd [8, 25]: 4.65
- pKd [9, 25]: below the threshold
- pKd [10, 25]: below the threshold
- pKd [11, 25]: below the threshold
- pKd [12, 25]: below the threshold
- pKd [13, 25]: below the threshold
- pKd [14, 25]: 3.71
- pKd [15, 25]: below the threshold
- pKd [16, 25]: below the threshold
- pKd [17, 25]: below the threshold
- pKd [18, 25]: below the threshold
- pKd [19, 25]: below the threshold
- pKd [20, 25]: below the threshold
- pKd [21, 25]: below the threshold
- pKd [22, 25]: below the threshold
- pKd [23, 25]: below the threshold
- pKd [24, 25]: below the threshold
Binder: TESNLQTSSC [CGN, Q9P2M7]

- pKd [1, 26]: below the threshold
- pKd [2, 26]: below the threshold
- pKd [3, 26]: below the threshold
- pKd [4, 26]: below the threshold
- pKd [5, 26]: below the threshold
- pKd [6, 26]: below the threshold
- pKd [7, 26]: below the threshold
- pKd [8, 26]: 4.15
- pKd [9, 26]: below the threshold
- pKd [10, 26]: 4.06
- pKd [11, 26]: below the threshold
- pKd [12, 26]: below the threshold
- pKd [13, 26]: below the threshold
- pKd [14, 26]: below the threshold
- pKd [15, 26]: below the threshold
- pKd [16, 26]: below the threshold
- pKd [17, 26]: below the threshold
- pKd [18, 26]: below the threshold
- pKd [19, 26]: below the threshold
- pKd [20, 26]: below the threshold
- pKd [21, 26]: below the threshold
- pKd [22, 26]: 4.45
- pKd [23, 26]: below the threshold
- pKd [24, 26]: 4.61
Binder: RSSGGDDFWF [KCNV1, Q6PIU1]

— paper PMC9482650, “Quantitative fragmentomics allow affinity mapping of interactomes” (Nature Communications, 2022)
